Test results as given in US20250121081A1 (JIANGSU HENGRUI PHARMACEUTICALS, published 2025).

Columns and labels:
[1] = target: T1, human ROR1 on cells (ROR1-CHO-K1, Jeko-1, MDA-MB-231, HCC827/ROR1) (human, UniProt Q01973 30-937); assay: cell-based or functional assay
[2] = target: T1, human ROR1 on cells (ROR1-CHO-K1, …); assay: cell-based or functional assay; remark: listed apart in the source
[3] = target: T1, human ROR1 on cells (ROR1-CHO-K1, …); assay: flow cytometry on Jeko-1 cells
Protocol: (§1) ROR1-CHO-K1 cells (Example 1), Jeko-1 cells (ATCC, CRL-3006), or MDA-MB-231 cells (ATCC, CRM-HTB-26) were separately suspended in a FACS buffer (2% fetal bovine serum (Gibco, 10099141) and PBS at pH 7.4 (Sigma, P4417-100TAB) to prepare a cell suspension at 1× 10⁶ cells/mL, and the suspension was then added to a 96-well round-bottom plate at 100 μL/well. After centrifugation and removal of the supernatant, the test antibody that was diluted with the FACS buffer to different concentrations was added at 50 μL/well. The plate was incubated in the dark in a 4° C. refrigerator for 1 h. The plate was washed 3 times with the FACS buffer by centrifugation at 500 g, and a fluorescent secondary antibody at a working concentration was added. The plate was incubated in the dark in the 4° C. refrigerator for 40 min. The plate was washed 3 times with the FACS buffer by centrifugation at 500 g and tested on a BD FACSCantoII flow cytometer for geometric mean fluorescence intensity, and the EC₅₀ values for the binding of the antibody to the cells expressing ROR1 were calculated.

[4] = target: T1, human ROR1 on cells (ROR1-CHO-K1, …); assay: flow cytometry on MDA-MB-231 cells
Protocol: as §1

[5] = target: T1, human ROR1 on cells (ROR1-CHO-K1, …); assay: flow cytometry on ROR1-CHO-K1 cells
Protocol: as §1

[6] = target: T2, human ROR1 (Cat. #19771-H08H, Sino Biological) antigen (human, UniProt Q01973 30-403); assay: SPR (Biacore T200), IgG captured on Protein A chip, human ROR1 as analyte, 1:1 model
T2 construct: Bought soluble antigen used as SPR analyte
Protocol: (§2) The anti-ROR1 antibody was analyzed by Biacore T200 (Cytiva) for affinity characterization and binding kinetics. The IgG antibody was subjected to affinity capture by a Protein A biosensor chip (Cat. #29127556, Cytiva), and then a human ROR1 (Cat. #19771-H08H, Sino Biological) antigen that was diluted with the HBS-EP buffer (pH 7.4, Cat. #BR-1006-69, Cytiva) to a series of concentrations was allowed to flow over the surface of the chip. The antigen-antibody binding kinetics was tracked for 3 min and the dissociation kinetics was tracked for 10 min. Reaction signals were detected in real time using a Biacore T200 instrument to obtain binding and dissociation curves. After dissociation was complete in each cycle, the biosensor chip was washed with 10 mM Gly-HCl at pH 1.5 (Cat. #BR-1003-54, Cytiva) for regeneration. The data obtained were analyzed with BIAevaluation software of Cytiva using a 1:1 (Langmuir) binding model.

[7] = target: T3, rat ROR1-His (Cat. #RO1-R5221, Acro) antigen (rat, UniProt D3ZZ97 30-406); assay: SPR (Biacore T200), IgG captured on Protein A chip, rat ROR1-His as analyte, 1:1 model
T3 construct: Bought His-tagged antigen; not shown: His tag
Protocol: as §2, with “a mouse ROR1-His” for “a human ROR1”, “(Cat. #RO1-M522, Acro) antigen and a rat ROR1-His (Cat. #RO1-R5221, Acro)” for “(Cat. #19771-H08H, Sino Biological)”, “that were” for “that was”, “concentrations were” for “concentrations was”, “for 15” for “for 10”

[8] = target: T4, mouse ROR1-His (Cat. #RO1-M522, Acro) antigen (mouse, UniProt Q9Z139 30-403); assay: SPR (Biacore T200), IgG captured on Protein A chip, mouse ROR1-His as analyte, 1:1 model
T4 construct: Bought His-tagged antigen; not shown: His tag
Protocol: as §2, with “a mouse ROR1-His” for “a human ROR1”, “(Cat. #RO1-M522, Acro) antigen and a rat ROR1-His (Cat. #RO1-R5221, Acro)” for “(Cat. #19771-H08H, Sino Biological)”, “that were” for “that was”, “concentrations were” for “concentrations was”, “for 15” for “for 10”

[9] = target: T4, mouse ROR1-His (Cat. #RO1-M522, Acro) …; assay: SPR (Biacore T200), IgG captured on Protein A chip, antigen as analyte
Protocol: as §2, with “a mouse ROR1-His” for “a human ROR1”, “(Cat. #RO1-M522, Acro) antigen and a rat ROR1-His (Cat. #RO1-R5221, Acro)” for “(Cat. #19771-H08H, Sino Biological)”, “that were” for “that was”, “concentrations were” for “concentrations was”, “for 15” for “for 10”

[10] = target: T3, rat ROR1-His (Cat. #RO1-R5221, Acro) …; assay: as above
Protocol: as §2, with “a mouse ROR1-His” for “a human ROR1”, “(Cat. #RO1-M522, Acro) antigen and a rat ROR1-His (Cat. #RO1-R5221, Acro)” for “(Cat. #19771-H08H, Sino Biological)”, “that were” for “that was”, “concentrations were” for “concentrations was”, “for 15” for “for 10”

T2 sequence (Q01973 30-403 limits assumed): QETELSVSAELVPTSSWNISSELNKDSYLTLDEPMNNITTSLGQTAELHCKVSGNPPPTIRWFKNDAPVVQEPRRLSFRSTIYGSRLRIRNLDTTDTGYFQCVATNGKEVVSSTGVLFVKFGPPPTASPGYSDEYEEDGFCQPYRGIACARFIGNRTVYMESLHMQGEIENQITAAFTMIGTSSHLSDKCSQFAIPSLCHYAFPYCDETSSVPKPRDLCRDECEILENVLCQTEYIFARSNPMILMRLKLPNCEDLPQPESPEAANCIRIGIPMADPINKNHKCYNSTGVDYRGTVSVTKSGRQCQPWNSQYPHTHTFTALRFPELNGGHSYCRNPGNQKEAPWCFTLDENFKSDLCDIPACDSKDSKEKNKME
T4 sequence (Q9Z139 30-403 limits assumed): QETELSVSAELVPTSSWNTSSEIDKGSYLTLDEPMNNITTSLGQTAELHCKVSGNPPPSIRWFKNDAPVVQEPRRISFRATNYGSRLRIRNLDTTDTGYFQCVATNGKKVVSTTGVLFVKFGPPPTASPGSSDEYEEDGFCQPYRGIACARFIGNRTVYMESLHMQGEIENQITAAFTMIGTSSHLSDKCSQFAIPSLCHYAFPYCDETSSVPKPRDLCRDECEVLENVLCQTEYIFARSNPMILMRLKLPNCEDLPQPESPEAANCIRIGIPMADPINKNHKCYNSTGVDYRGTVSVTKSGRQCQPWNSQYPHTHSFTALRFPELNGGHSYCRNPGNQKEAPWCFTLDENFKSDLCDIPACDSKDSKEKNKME
T1 sequence (Q01973 30-937 limits assumed): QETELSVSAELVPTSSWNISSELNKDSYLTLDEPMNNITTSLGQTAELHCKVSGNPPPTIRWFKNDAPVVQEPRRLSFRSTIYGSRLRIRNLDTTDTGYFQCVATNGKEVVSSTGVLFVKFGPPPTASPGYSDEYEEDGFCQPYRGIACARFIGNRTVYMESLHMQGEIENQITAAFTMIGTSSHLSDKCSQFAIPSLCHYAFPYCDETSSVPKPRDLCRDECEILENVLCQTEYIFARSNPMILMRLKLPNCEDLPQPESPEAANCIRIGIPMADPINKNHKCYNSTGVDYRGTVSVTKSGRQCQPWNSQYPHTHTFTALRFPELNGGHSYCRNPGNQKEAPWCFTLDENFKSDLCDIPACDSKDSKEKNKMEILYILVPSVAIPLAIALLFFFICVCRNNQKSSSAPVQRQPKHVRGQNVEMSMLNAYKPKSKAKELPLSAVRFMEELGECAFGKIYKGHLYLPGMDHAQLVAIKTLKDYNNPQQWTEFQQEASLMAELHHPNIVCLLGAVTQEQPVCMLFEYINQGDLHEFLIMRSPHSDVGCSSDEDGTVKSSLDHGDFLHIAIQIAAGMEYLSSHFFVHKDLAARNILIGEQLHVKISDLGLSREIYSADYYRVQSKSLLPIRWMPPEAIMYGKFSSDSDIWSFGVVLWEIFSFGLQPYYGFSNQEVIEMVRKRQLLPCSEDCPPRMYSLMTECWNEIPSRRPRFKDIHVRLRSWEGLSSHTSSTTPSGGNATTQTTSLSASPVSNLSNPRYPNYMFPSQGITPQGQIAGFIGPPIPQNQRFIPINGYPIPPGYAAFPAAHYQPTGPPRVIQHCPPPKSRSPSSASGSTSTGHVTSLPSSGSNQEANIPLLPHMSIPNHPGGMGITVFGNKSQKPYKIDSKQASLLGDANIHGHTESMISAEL

| Binder | IC50 (nM), killing of HCC827/ROR1 (+++) cells [1] [nM] | IC50 (nM), killing of Jeko-1 (+) cells [1] [nM] | IC50 (nM), killing of MDA-MB-231 (+) cells [1] [nM] | Kd [6] [nM] | koff [6] [s⁻¹] | kon [6] [M⁻¹ s⁻¹] | also measured |
| --- | --- | --- | --- | --- | --- | --- | --- |
| ADC-5 (antibody 347 conjugated to compound 9A, n=3.99) (antibody, human IgG1, kappa, V domains shown, linker-drug compound 9A conjugated after TCEP reduction; average drug loading n=3.99 per antibody; sites not stated) VH: QVQLVQSGAEVKKPGSSVKVSCKASGYTFTDYYISWVRQGPGQGLEWMGGINAGNGNTNYAQKFQGRVTITADESTSTAYMELSSLRSEDTAVYYCASPGWDVFDIWGQGTMVTVSS VL: DIQMTQSPSPLSASVGDRVTITCQASQDISNYLNWYQQKPGKAPKLLIYDASNLETGVPSRFSGSGSGTDFTFTISSLQPEDIATYYCQQHEDLPITFGQGTRLEIKR | 4.36 | 58.1 | 349 |  |  |  |  |
| fully human ROR1 antibody 347 (antibody, human IgG1, kappa, V domains shown, Full-length human IgG1/kappa) VH: QVQLVQSGAEVKKPGSSVKVSCKASGYTFTDYYISWVRQGPGQGLEWMGGINAGNGNTNYAQKFQGRVTITADESTSTAYMELSSLRSEDTAVYYCASPGWDVFDIWGQGTMVTVSS VL: DIQMTQSPSPLSASVGDRVTITCQASQDISNYLNWYQQKPGKAPKLLIYDASNLETGVPSRFSGSGSGTDFTFTISSLQPEDIATYYCQQHEDLPITFGQGTRLEIKR |  |  |  | 1.18 | 0.00273 | 2.31e+06 | IC50 (nM) (DT3C endocytosis killing on ROR1-CHOK1) [2]: 0.596 nM; EC50 [3]: 0.098 nM; EC50 [4]: 0.094 nM; EC50 [5]: 0.502 nM; Kd [7]: 0.0315 nM; koff [7]: 0.00115 s⁻¹; kon [7]: 3.66e+07 M⁻¹ s⁻¹; Kd [8]: 0.238 nM; koff [8]: 0.000676 s⁻¹; kon [8]: 2.84e+06 M⁻¹ s⁻¹ |
| ADC-4 (antibody 347 conjugated to compound 9A, n=7.39) (antibody, human IgG1, kappa, V domains shown, linker-drug compound 9A conjugated after TCEP reduction; average drug loading n=7.39 per antibody; sites not stated) VH: QVQLVQSGAEVKKPGSSVKVSCKASGYTFTDYYISWVRQGPGQGLEWMGGINAGNGNTNYAQKFQGRVTITADESTSTAYMELSSLRSEDTAVYYCASPGWDVFDIWGQGTMVTVSS VL: DIQMTQSPSPLSASVGDRVTITCQASQDISNYLNWYQQKPGKAPKLLIYDASNLETGVPSRFSGSGSGTDFTFTISSLQPEDIATYYCQQHEDLPITFGQGTRLEIKR | 1.36 | 17.4 | 146 |  |  |  |  |
| anti-ROR1 antibody Ab1 in WO2018237335 (positive control) (antibody, human IgG1, kappa, V domains shown, Positive control antibody; also called Abl) VH: QVQLQESGPGLVKPSQTLSLTCTVSGYAFTAYNIHWVRQAPGQGLEWMGSFDPYDGGSSYNQKFKDRLTISKDTSKNQVVLTMTNMDPVDTATYYCARGWYYFDYWGHGTLVTVSS VL: DIVMTQTPLSLPVTPGEPASISCRASKSISKYLAWYQQKPGQAPRLLIYSGSTLQSGIPPRFSGSGYGTDFTLTINNIESEDAAYYFCQQHDESPYTFGEGTKVEIKR |  |  |  | 91 | 0.0546 | 600000 | binding result [9]: no binding; binding result [10]: no binding |
